Biological target: CBD-cohesin from C. thermocellum displayed on the yeast cell surface (CtCBDcoh yeast), P32781
Sequence (P32781 whole entry, looked up): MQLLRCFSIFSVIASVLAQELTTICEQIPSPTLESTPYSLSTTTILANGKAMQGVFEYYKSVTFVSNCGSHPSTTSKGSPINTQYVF

B1: Cel8A cellulase spliced to the Cel48S dockerin with aspartic acid substituted for the No. 18 and No. 50 asparagines, His-tagged (CtCBDcohCel8A48SdocN-D yeast) (protein)
chain: AGVPFNTKYPYGPTSIADNQSEVTAMLKAEWEDWKSKRITSNGAGGYKRVQRDASTNYDTVSEGMGYGLLLAVCFNEQALFDDLYRYVKSHFNGNGLMHWHIDANNNVTSHDGGDGAATDADEDIALALIFADKLWGSSGAINYGQEARTLINNLYNHCVEHGSYVLKPGDRWGGSSVTNPSYFAPAWYKVYAQYTGDTRWNQVADKCYQIVEEVKKYNNGTGLVPDWCTASGTPASGQSYDYKYDATRYGWRTAVDYSWFGDQRAKANCDMLTKFFARDGAKGIVDGYTIQGSKISNNHNASFIGPVAAASMTGYDLNFAKELYRETVAVKDSEYYGYYGNSLRLLTLLYITGNFPNPLSDLSGQPTPPSNPTPSLPPQVVYGPSSGTPSTKLYGDVNDDGKVDSTDAVALKRYVLRSGISINTDNADLNEDGRVDSTDLGILKRYILKEIDTLPYKN
Which CMC decomposition activity does the source give for B1 here?
The CMC decomposition activity was “CMC decomposition activity was increased by amino acid substitution (FIG. 11), indicating improved saccharification ability of the yeast”.

Reference: patent US20110250668
